Source: patent US20060199195A1 (CEDARS SINAI MEDICAL CENTER, published 2006)

B5: glutathione-S-transferase fusion of the C-terminal domain of schwannomin isoform 1 (GSTNF2CL, schwannomin residues 469-595) (other)
chain: KQKLLEIATKPTYPPMNPIPAPLPPDIPSFNLIGDSLSFDFKDTDMKRLSMEIEKEKVEYMEKSKHLQEQLNELKTEIEALKLKERETALDILHNENSDRGGSSKHNTIKKLTLQSAKSRVAFFEEL
notes: Expressed in E. coli DH5α, purified on Sepharose 4B-glutathione; predicted 40.0 kDa; also called isoform 1 C-terminal domain GST fusion; not shown: Glutathione-S-transferase of pGEX-5X-1 and its linker

Key:
[1] = biological target: B5; assay: pull-down on amylose resin, Western blot
Experimental: (§1) Purified MBP or MBP fusions were incubated with fresh amylose resin for 5 minutes at room temperature and 2.5 minutes at 4° C. in column buffer (20 mM Tris-HCl, pH 7.4, 200 mM NaCl, 1 mM EDTA, 2 μg/ml aprotinin, 0.5 mg/ml Perfabloc SC), and washed three times with binding buffer (160 mM NaCl, 2.5 mM MgCl₂, 1.5 mM CaCl₂, […], 50 mM hepes, pH 7.4, 1% Triton X-100, 2 μg/ml aprotinin, and 0.5 mg/ml Pefabloc SC). Saturated amylose resin was incubated with equivalent amounts of GSTNF2CL or GSTNF2I2CL for 20 min at 4° C. and washed three times with binding buffer. The quantities were normalized by conducting dot blots of serial dilutions detected with anti-GST antibody (Pharmacia). Western blot analysis was conducted as described using affinity purified rabbit anti-spectrin (Sigma S1515), and anti-schwannomin (Ab5990, recognizes C-terminal domain) polyclonal antibodies (Huynh and Pulst (1996)).
(§2) Glutathione-S-transferase (GST) fusions were purified with the C-terminal domain of schwannomin isoform 1 (GSTNF2CL, schwannomin residues 469-595) or isoform 2 (GSTNF2I2CI, schwannomin residues 469-590). When the MBPSp-amylose resin was incubated with schwannomin-GST fusion proteins, the proteins eluted from the washed resin were recognized by an anti-schwannomin antibody (Ab5990). […]

[2] = biological target: T1, full-length schwannomin isoform 1 fused to the GAL4 binding domain (pGBT9NF2, residues 1-595) (Homo sapiens (Human), UniProt P35240 1-595); assay: yeast two-hybrid, β-galactosidase filter assay
T1 construct: Yeast two-hybrid bait; also called pGPT9NF2; GAL4-NF2
T1 sequence: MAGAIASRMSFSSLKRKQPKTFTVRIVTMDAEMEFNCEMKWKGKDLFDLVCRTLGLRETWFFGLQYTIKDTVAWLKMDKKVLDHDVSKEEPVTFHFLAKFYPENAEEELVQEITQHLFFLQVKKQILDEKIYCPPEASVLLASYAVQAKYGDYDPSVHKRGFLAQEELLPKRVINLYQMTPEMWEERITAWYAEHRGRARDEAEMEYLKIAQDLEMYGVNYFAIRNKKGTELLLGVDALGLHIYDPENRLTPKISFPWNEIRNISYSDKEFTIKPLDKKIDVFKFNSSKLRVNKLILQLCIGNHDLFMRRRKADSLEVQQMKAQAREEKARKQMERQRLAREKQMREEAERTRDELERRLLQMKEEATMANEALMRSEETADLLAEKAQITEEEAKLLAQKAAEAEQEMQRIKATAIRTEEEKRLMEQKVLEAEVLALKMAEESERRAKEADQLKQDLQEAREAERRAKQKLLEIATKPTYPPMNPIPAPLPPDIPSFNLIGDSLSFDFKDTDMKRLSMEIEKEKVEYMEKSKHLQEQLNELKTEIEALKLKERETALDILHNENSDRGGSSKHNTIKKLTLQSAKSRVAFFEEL
Description: Double-transformant pGBT9NF2I2CL and pGAD10Sp is weakly positive for β-galactosidase in the filter assay; the trace blue color is not visible in the photo. Right: Histogram illustrating results of semiquantitative liquid assays for β-galactosidase activity (Poullet and Tamanio, Methods in Enzymol. 255:488-497 (1995)). Three controls are included: pGBT9NF1 and pGADGHRas, negative pGBT9NF2 and PGADGH, negative pGBT9 and pGAD105p. β-Galactosidase units=1000×[OD₄₂₀/(OD₆₀₀×times×culture volume)]. Bars show mean and standard deviation of three replicate clones from one transformation. Except for pGBT9NF2C and pGBT9NF2I2C, liquid assays for each construct were conducted at the same time, and for all constructs, the same clones were used in filter assays, and results were reproducible. FIG. 1(B) Control β-galactosidase filter assays of indicated double transformants showing high activity for a known positive interaction between NF1 and Ras (Poullet and Tamanio, (1995)), no detectable interaction between GAL4-NF2 and an unrelated protein, CD44 (conserved cytoplasmic domain, last 70 residues), and no detectable interaction between other negative controls. […]

[3] = biological target: T1, full-length schwannomin isoform 1 fused …; assay: yeast two-hybrid, liquid β-galactosidase assay, control
[4] = biological target: maltose binding protein (MBP) with no fusion protein (UniProt P0AEX9 27-392 = MBP); assay: pull-down on amylose resin, Western blot with Ab5990
Experimental: as §1, §2

B1: MBP fused with β-spectrin residues 1885-1967 (other, UniProt Q01082 1885-1967, looked up, not shown: large carriers)
chain: RENEVLEAWKSLLDACESRRVRLVDTGDKFRFFSMVRDLMLWMEDVIRQIEAQEKPRDVSSVELLMNNHQGIKAEIDARNDSF
**Q.** Does B1 bind [1]?
**A.** no binding

B2: CD44 (conserved cytoplasmic domain, last 70 residues) (other, UniProt P16070 673-742, looked up, not shown: large carriers)
chain: RRRCGQKKKLVINSGNGAVEDRKPSGLNGEASKSQEMVHLVNKESSETPDQFMTADETRNLQNVDMKIGV
notes: domain: conserved cytoplasmic domain, last 70 residues; Unrelated control protein in the two-hybrid filter assay
**Q.** Does B2 bind [2]?
**A.** no binding

B3: MBP fused with β-spectrin residues 1885-1992 (other, UniProt Q01082 1885-1992, looked up, not shown: large carriers)
chain: RENEVLEAWKSLLDACESRRVRLVDTGDKFRFFSMVRDLMLWMEDVIRQIEAQEKPRDVSSVELLMNNHQGIKAEIDARNDSFTTCIELGKSLLARKHYASEEIKEKL
**Q.** Does B3 bind [1]?
**A.** no binding

B4: GAL4 activation domain alone (pGADGH, no insert) (other, UniProt P04386 768-881, looked up)
chain: ANFNQSGNIADSSLSFTFTNSSNGPNLITTQTNSQALSQPIASSNVHDNFMNNEITASKIDDGNNSKPLSPGWTDQTAYNAFGITTGMFNTTTMDDVYNYLFDDEDTPPNPKKE
notes: Negative control
**Q.** Does B4 bind [3]?
**A.** no binding

**Q.** Does B5 bind [4]?
**A.** no binding
